Results on one molecule are retold here after article PMC5737849, “Structural study of the Fox-1 RRM protein hydration reveals a role for key water molecules in RRM-RNA recognition”.

One series concerns the target T1, Fox-1 RRM WT (UniProt Q9NWB1 109-208).
T1 sequence: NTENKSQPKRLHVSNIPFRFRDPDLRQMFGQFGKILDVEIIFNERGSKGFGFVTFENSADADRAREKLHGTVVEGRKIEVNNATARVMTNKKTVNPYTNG
In words: NMR (1H-1H TOCSY); 1:1 ratio, 20 mM NaCl, pH 6.5, 40 C; switchSENSE: 10 mM Tris-HCl pH 7.4, 140 mM NaCl, 0.05% Tween20, 25 C; NMR: 10 mM phosphate pH 6.5, 20 mM NaCl, 40 C. Particulars: protein: recombinant; tags: N-terminal 6xHis (pET28a); single strand.

The target in another series is T2, Fox-1 RRM S155A (UniProt Q9NWB1 109-208, S155A).
T2 sequence: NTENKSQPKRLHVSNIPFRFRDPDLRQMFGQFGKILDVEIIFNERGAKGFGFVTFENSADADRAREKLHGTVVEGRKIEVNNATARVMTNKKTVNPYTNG
The series is described as above. Particulars: protein: recombinant; tags: N-terminal 6xHis (pET28a); single strand.

B1: 5'-UGCAUGU-3' RNA oligonucleotide (NMR) (ssRNA)
RNA: UGCAUGU
Regarding B1, the binding result in the series with Fox-1 RRM WT and in the series with Fox-1 RRM S155A was “binds” each time.
